Results as given in paper PMC6746942.

Key:
[1] = target: T1, YtrASa (Sulfolobus acidocaldarius) (UniProt Q4J7S4); assay: EMSA; conditions: 20 mM Tris-HCl pH 8.0, 1 mM MgCl2, 0.1 mM DTT, 12.5% glycerol, 50 mM NaCl, 0.4 mM EDTA, 37 C; ~0.1 nM 32P-DNA, excess non-specific competitor DNA; 6% native …
T1 sequence: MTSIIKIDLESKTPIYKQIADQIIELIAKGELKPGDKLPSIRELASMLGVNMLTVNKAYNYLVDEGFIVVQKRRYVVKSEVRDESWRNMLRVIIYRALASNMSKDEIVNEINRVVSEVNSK

[2] = target: T1, YtrASa (Sulfolobus acidocaldarius); assay: DNase I footprinting; conditions: 20 mM Tris-HCl pH 8.0, 1 mM MgCl2, 0.1 mM DTT, 12.5% glycerol, 50 mM NaCl, 0.4 mM EDTA, 37 C; ~0.1 nM 32P-DNA, excess non-specific competitor DNA; 6% native …

Substance | binding [1] | Kd [1] [nM] | binding [2]
AGCAACACCAAAGGATTGAATTTCATTTCTATCCCTGTTTGACTTAAAGCAAGACTCTTGAATAAAAAATATAATTTAGAGGTTTACTAAAAACAAACCGTGAACGTAGGAAGA (double strand) [Saci_0871 target] | no binding | – | –
GTTTTGAGTACAACCTAACCCATTATACTAAATAAGGTTTATTTATTTTAGTAACTTTTAGAAATTATGCAAGATCTTTTTTGGGAAAGTGCAAATTGCCTTGAGGGAAAAGGTCTGCAA (double strand) [Saci_2168 target] | no binding | – | –
Saci_2078 target, 100 bp | – | 34 | –
TCCTGAAGGCCTAAAAGAGTACATTCTAGACCTTTCCGCATAAAACTTAGGTAGGGCTAGGCATAATGCAAAAGCCCTCAAACTTTTCATTAAAGAAGTGATT (double strand) [Saci_0677 target] | no binding | – | –
AACTGCGGTGAATAAAGTAGGGTGTTTGATTTTTGCCAAAGAAGAGGGAGAATAGAGGAAGAAGAAAGGGCGACAAAGGACACGTTGGTAGCATACATTGTGACCA (double strand) [Saci_1554 target] | binds more weakly | – | –
GGGAAAGGATATTGGGGAAATATTAAAAATACTGGGTTGAAGTTTAAACTTGTGTTTAAACAACTAATAATTAAATATTTTGGGATAATATCTGTTGTAATCCTTGCAACAATAATCTC (double strand) [Saci_0421 target] | no binding | – | –
TCGTCAACAACCTATATAAGCCATAACTTTAAATAAGGATATTGTTATATTTGTTATATGACAAATATGTTTTCATTACTCTACCCGCTAATCTCCATAG (double strand) [Saci_2078 target, 100 bp] | – | 34 | binds
CTTACCTTTTATAGTAGGTAAATAAGGTTTTTATTCCCCTAAATCATATATTTGCTATATGACAAGTATAATAAAAATCGACCTAGAGTCCAAGACTCCCATC (double strand) [ytrASa (Saci_1851) target, 102 bp] | binds | 37 | binds
ytrASa (Saci_1851) target, 102 bp | – | 37 | –
AAAATGGGAGAGTAATCGGTTTTTATTGAGACTTCGCAATACGATATATATGGATACAAAAGTTGTAATTAGAAGAGATCAGTGGAAACCAGGATCGGCGATGGAAATAAAGCGAGGCGT (double strand) [Saci_1234 target] | no binding | – | –
